Source: publication PMC9482650, “Quantitative fragmentomics allow affinity mapping of interactomes” (Nature Communications, 2022)

B1: CLDN4, O14493 (peptide)
chain: ARSAAASNYV
B2: FAM110D, Q8TAY7 (peptide)
chain: ARGPPRESEV

Experiments:
Experiment in all cases: holdup assay
Design in all cases: key: below the threshold = too weak to quantify, mostly under pKd 3.1 to 4
Settings in all cases: plain residues with an end cap or a label only (N-terminal biotin on a linker: ado-ado)
[1] = molecular target: Inadl_1, Q8NI35
Inadl_1, Q8NI35, sequence (Q8NI35 113-229): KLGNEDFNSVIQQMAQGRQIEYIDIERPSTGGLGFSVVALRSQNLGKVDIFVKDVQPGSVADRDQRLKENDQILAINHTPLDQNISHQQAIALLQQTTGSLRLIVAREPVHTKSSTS

[2] = molecular target: NHERF4_4, Q86UT5
NHERF4_4, Q86UT5, sequence (Q86UT5 464-550): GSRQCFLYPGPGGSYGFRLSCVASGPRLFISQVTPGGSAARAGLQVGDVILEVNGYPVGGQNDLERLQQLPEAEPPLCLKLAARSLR

[3] = molecular target: T1, MPDZ_10, O75970
T1 sequence (O75970 1624-1722, limits assumed, looked up): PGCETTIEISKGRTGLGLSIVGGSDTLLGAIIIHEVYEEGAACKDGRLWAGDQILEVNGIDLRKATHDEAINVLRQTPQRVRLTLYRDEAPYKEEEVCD

[4] = molecular target: T2, RADIL, Q96JH8
T2 sequence (Q96JH8 971-1071, limits assumed, looked up): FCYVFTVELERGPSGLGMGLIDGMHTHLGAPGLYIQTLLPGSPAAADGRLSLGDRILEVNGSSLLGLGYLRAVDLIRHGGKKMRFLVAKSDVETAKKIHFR

[5] = molecular target: GRIP2_7, Q9C0E4
GRIP2_7, Q9C0E4, sequence (Q9C0E4 934-1023): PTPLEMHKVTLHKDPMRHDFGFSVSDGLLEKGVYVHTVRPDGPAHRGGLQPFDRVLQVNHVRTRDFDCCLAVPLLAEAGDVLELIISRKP

[6] = molecular target: T3, PCLO, Q9Y6V0
T3 sequence (Q9Y6V0 4491-4600, limits assumed, looked up): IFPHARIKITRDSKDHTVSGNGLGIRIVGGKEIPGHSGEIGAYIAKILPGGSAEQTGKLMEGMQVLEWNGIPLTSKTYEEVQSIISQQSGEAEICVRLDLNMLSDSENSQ

[7] = molecular target: LDB3, O75112
LDB3, O75112, sequence (O75112 1-94): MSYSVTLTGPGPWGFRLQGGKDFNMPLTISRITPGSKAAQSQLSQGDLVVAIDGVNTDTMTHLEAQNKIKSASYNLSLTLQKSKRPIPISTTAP

[8] = molecular target: GORASP2, Q9H8Y8
[9] = molecular target: DLG1_1, Q12959
[10] = molecular target: GRID2IP_1, A4D2P6
GRID2IP_1, A4D2P6, sequence (A4D2P6 1-87): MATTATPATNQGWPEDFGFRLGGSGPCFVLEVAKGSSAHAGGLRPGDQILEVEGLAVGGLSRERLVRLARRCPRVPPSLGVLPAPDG

[11] = molecular target: GIPC2, Q8TF65
GIPC2, Q8TF65, sequence (Q8TF65 112-203): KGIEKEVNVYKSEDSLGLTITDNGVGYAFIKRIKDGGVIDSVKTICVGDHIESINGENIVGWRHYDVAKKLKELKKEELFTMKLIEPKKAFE

[12] = molecular target: MAGI2_2, Q86UL8
MAGI2_2, Q86UL8, sequence (Q86UL8 410-522): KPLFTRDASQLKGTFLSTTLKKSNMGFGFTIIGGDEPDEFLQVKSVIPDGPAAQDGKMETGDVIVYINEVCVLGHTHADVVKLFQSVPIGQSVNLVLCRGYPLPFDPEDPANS

[13] = molecular target: T4, APBA1_1, Q02410
T4 sequence (Q02410 651-752, limits assumed, looked up): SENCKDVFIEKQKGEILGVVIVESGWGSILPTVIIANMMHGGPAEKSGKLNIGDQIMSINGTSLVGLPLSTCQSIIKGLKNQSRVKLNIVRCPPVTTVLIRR

[14] = molecular target: T5, GRIP1_7, Q9Y3R0
T5 sequence (Q9Y3R0 999-1096, limits assumed, looked up): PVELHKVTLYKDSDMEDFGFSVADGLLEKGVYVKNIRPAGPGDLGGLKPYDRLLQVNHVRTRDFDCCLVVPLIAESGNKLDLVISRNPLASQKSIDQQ

[15] = molecular target: DLG1_3, Q12959
[16] = molecular target: T6, GRIP1_3, Q9Y3R0
T6 sequence (Q9Y3R0 247-346, limits assumed, looked up): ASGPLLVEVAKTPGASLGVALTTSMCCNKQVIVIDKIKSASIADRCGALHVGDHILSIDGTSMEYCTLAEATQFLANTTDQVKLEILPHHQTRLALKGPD

[17] = molecular target: TJP1_3, Q07157
TJP1_3, Q07157, sequence (Q07157 416-512): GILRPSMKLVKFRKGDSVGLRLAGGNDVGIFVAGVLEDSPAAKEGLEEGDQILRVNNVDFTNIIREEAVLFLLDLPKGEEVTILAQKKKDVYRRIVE

[18] = molecular target: T7, GRIP1_2, Q9Y3R0
T7 sequence (Q9Y3R0 145-248, limits assumed, looked up): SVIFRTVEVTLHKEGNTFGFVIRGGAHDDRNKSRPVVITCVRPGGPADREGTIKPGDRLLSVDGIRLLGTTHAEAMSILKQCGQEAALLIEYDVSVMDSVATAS

[19] = molecular target: TJP1_2, Q07157
TJP1_2, Q07157, sequence (Q07157 181-274): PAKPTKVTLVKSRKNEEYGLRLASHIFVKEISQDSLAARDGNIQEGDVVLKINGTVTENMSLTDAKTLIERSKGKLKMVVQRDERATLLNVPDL

[20] = molecular target: T8, TIAM2, Q8IVF5
T8 sequence (Q8IVF5 885-986, limits assumed, looked up): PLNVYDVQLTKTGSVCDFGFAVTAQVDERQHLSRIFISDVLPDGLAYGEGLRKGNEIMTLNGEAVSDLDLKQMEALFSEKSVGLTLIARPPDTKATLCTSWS

[21] = molecular target: T9, NHERF3_1, Q5T2W1
T9 sequence (Q5T2W1 4-100, limits assumed, looked up): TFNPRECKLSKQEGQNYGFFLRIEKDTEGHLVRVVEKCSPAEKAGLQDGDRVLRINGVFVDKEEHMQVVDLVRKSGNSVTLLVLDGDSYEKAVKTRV

[22] = molecular target: AHNAK1, Q09666
AHNAK1, Q09666, sequence (Q09666 4-100): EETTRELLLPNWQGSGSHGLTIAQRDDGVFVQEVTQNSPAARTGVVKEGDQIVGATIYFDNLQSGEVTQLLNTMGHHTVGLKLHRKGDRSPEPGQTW

[23] = molecular target: T10, LIN7A, O14910
T10 sequence (O14910 103-200, limits assumed, looked up): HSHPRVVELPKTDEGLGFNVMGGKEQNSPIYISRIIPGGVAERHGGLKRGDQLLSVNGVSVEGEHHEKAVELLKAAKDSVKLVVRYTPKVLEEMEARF

[24] = molecular target: SCRIB_3, Q14160
SCRIB_3, Q14160, sequence (Q14160 999-1103): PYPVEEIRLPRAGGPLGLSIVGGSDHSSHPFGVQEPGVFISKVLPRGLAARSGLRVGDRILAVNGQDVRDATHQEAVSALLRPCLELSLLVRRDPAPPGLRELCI

[25] = molecular target: MAGI2_3, Q86UL8
MAGI2_3, Q86UL8, sequence (Q86UL8 600-682): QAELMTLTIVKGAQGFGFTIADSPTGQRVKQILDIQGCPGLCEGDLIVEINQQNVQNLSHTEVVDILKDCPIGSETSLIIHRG

[26] = molecular target: GOPC, Q9HD26
[27] = molecular target: DLG2_2, Q15700
[28] = molecular target: DLG2_3, Q15700

Binder | pKd [1] | pKd [2] | pKd [3] | pKd [4] | pKd [5] | pKd [6] | pKd [7] | pKd [8] | pKd [9] | pKd [10] | pKd [11] | pKd [12] | pKd [13] | pKd [14] | pKd [15] | pKd [16] | pKd [17] | pKd [18] | pKd [19] | pKd [20] | other results
B1 | below the threshold | 3.92 | below the threshold | 4.5 | below the threshold | below the threshold | below the threshold | 4.01 | below the threshold | below the threshold | below the threshold | 3.6 | below the threshold | below the threshold | below the threshold | below the threshold | below the threshold | below the threshold | below the threshold | below the threshold | pKd [21]: 4.48; pKd [22]: below the threshold; pKd [23]: below the threshold; pKd [24]: below the threshold; pKd [25]: below the threshold; pKd [26]: below the threshold; pKd [27]: below the threshold; pKd [28]: below the threshold
B2 | below the threshold | below the threshold | below the threshold | below the threshold | below the threshold | below the threshold | below the threshold | below the threshold | 4.7 | below the threshold | 4.32 | 4.56 | below the threshold | below the threshold | 4.36 | below the threshold | below the threshold | below the threshold | below the threshold | below the threshold | pKd [21]: 4.03; pKd [22]: below the threshold; pKd [23]: below the threshold; pKd [24]: 4.63; pKd [25]: 3.53; pKd [26]: 3.51; pKd [27]: 5.3; pKd [28]: 4.54
